The text below walks through data of patent US20210155907.

Holding throughout (assay): cell_activity
The test system of series [1] is TAL1-Tet1-CD (TAL effector repeat array to KLF4 site 1, Gly3Ser linker, Tet1 catalytic domain). The settings on record: CpG demethylation 15 bp downstream of site (32.5% at 9 bp); K562 cells, bisulfite sequencing.
Series [2] relates to TAL2-Tet1-CD (KLF4 site 2). Particulars: CpG demethylation 17 bp downstream (28.2% at 27 bp, none at 1 and 3 bp); K562 cells.
Series [3] relates to TAL3-Tet1-CD (KLF4 site 3). Particulars: CpG demethylation at 22, 36, 116 and 143 bp downstream; K562 cells.
For series [4], the system named is TAL4-Tet1-CD (KLF4 site 4). The settings on record: CpG demethylation 13 bp downstream, no other CpGs significant; K562 cells.
In series [5] the test system is KLF4 six-finger ZF-Tet1 fusion (engineered). The settings on record: CpG demethylation 6 bp downstream (25% at 24 bp); K562 cells; one of two KLF4 ZF-Tet1 proteins.

“GGGGGCGGGCGGAGCCTTGGGGTCACCAAGAGCCACTGAACGAGGGTAAGGAGCGGCCACCGCGCGGACTCCGCAACCTTCCCGGGATAGCTTCCGTGTCCTTGGCTCAGCTGTGTATGCCCGTGGTGCGAGCACTGCGGAGCCGCCTGGGGCGCAAGCCGGGTCTTCACCAGTCCCCGGGCGCGCTGTCGGTAGGGCGGGCGCTCTCGGGCCACCGGGCGGGAGGTGGCCGCGTCCCCAGACACTGGCTGGGCCAGAGTGAGTTTAGCGCGTAGGCGGC (double strand) [KLF4 intron 1-2 TAL site 1]” returned an activity in series [1] of 45.4%. Take “GGGGGCGGGCGGAGCCTTGGGGTCACCAAGAGCCACTGAACGAGGGTAAGGAGCGGCCACCGCGCGGACTCCGCAACCTTCCCGGGATAGCTTCCGTGTCCTTGGCTCAGCTGTGTATGCCCGTGGTGCGAGCACTGCGGAGCCGCCTGGGGCGCAAGCCGGGTCTTCACCAGTCCCCGGGCGCGCTGTCGGTAGGGCGGGCGCTCTCGGGCCACCGGGCGGGAGGTGGCCGCGTCCCCAGACACTGGCTGGGCCAGAGTGAGTTTAGCGCGTAGGCGGC (double strand) [KLF4 intron 1-2 TAL site 2]”: the activity in series [2] came to 36.5%. As to “GGGGGCGGGCGGAGCCTTGGGGTCACCAAGAGCCACTGAACGAGGGTAAGGAGCGGCCACCGCGCGGACTCCGCAACCTTCCCGGGATAGCTTCCGTGTCCTTGGCTCAGCTGTGTATGCCCGTGGTGCGAGCACTGCGGAGCCGCCTGGGGCGCAAGCCGGGTCTTCACCAGTCCCCGGGCGCGCTGTCGGTAGGGCGGGCGCTCTCGGGCCACCGGGCGGGAGGTGGCCGCGTCCCCAGACACTGGCTGGGCCAGAGTGAGTTTAGCGCGTAGGCGGC (double strand) [KLF4 intron 1-2 TAL site 3]”, the activity in series [3] was greater than 25%. In the case of “GGGGGCGGGCGGAGCCTTGGGGTCACCAAGAGCCACTGAACGAGGGTAAGGAGCGGCCACCGCGCGGACTCCGCAACCTTCCCGGGATAGCTTCCGTGTCCTTGGCTCAGCTGTGTATGCCCGTGGTGCGAGCACTGCGGAGCCGCCTGGGGCGCAAGCCGGGTCTTCACCAGTCCCCGGGCGCGCTGTCGGTAGGGCGGGCGCTCTCGGGCCACCGGGCGGGAGGTGGCCGCGTCCCCAGACACTGGCTGGGCCAGAGTGAGTTTAGCGCGTAGGCGGC (double strand) [KLF4 intron 1-2 TAL site 4]”, the activity in series [4] turned out to be 37%. In series [5], KLF4 locus ZF site gave an activity of 68%.
